From PMC2702170, “DNA Structure Modulates the Oligomerization Properties of the AAV Initiator Protein Rep68” (PLoS Pathogens, 2009)

Key:
OID (OID-N208) [1] = target: T1, OID (OID-N208) (Adeno-associated virus 2 (AAV2), UniProt P03132 1-208); assay: size exclusion chromatography; 2.8 or 16.6 uM RBS dsDNA, 200 mM NaCl; Anisotropy: 20 mM HEPES pH 7.5, 50 mM NaCl, 5 nM DNA, 20 C, 15 min. SEC: 25 mM Tris-HCl pH 8.0 (4 C), 200 mM NaCl, 5% glycerol, 1 mM TCEP, 16.6 uM protein, 30 min on ice; details: protein: recombinant; chain copies: 2; blunt
Rep68 [2] = target: T2, Rep68 (Adeno-associated virus 2 (AAV2), UniProt P03132 1-536); assay: size exclusion chromatography; sedimentation velocity; SAXS; apparent ~578 kDa; five Rep68 subunits; Anisotropy: 20 mM HEPES pH 7.5, 50 mM NaCl, 5 nM DNA, 20 C, 15 min. SEC: 25 mM Tris-HCl pH 8.0 (4 C), 200 mM NaCl, 5% glycerol, 1 mM TCEP, 16.6 uM protein, 30 min on ice; details: protein: recombinant; tags: untagged (His6-PreScission tag removed); chain copies: 5; blunt
Rep68 [3] = target: T2, Rep68; assay: fluorescence anisotropy; Anisotropy: 20 mM HEPES pH 7.5, 50 mM NaCl, 5 nM DNA, 20 C, 15 min. SEC: 25 mM Tris-HCl pH 8.0 (4 C), 200 mM NaCl, 5% glycerol, 1 mM TCEP, 16.6 uM protein, 30 min on ice; details: protein: recombinant; tags: untagged (His6-PreScission tag removed); chain copies: 16; label: 5' 6-carboxyfluorescein
Rep40 [4] = target: T3, Rep40 (Adeno-associated virus 2 (AAV2), UniProt Q89269 1-312); assay: as above; details: protein: recombinant; label: 5' 6-carboxyfluorescein
T3 sequence: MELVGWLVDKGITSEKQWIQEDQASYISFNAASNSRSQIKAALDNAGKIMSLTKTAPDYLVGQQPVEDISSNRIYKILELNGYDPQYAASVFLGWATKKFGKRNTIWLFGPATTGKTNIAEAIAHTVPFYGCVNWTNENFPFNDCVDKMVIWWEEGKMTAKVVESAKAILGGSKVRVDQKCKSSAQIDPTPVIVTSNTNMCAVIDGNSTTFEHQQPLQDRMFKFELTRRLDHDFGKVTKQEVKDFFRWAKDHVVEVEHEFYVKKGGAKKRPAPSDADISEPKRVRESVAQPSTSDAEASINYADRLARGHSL

OID (OID-N208) [5] = target: T1, OID (OID-N208); assay: as above; details: protein: recombinant; chain copies: 2; label: 5' 6-carboxyfluorescein
[6] = target: the molecule itself; assay: cryo-EM structure; Rep68-heteroduplex complex purified by size-exclusion chromatography; 2D classification of a limited number of end views
[7] = target: the molecule itself; assay: cryo-EM structure; Rep68-ssDNA complex purified on Superose 6, about 0.4 mg/ml; 0.05% n-octyl β-D-glucopyranoside for side views; reference-free 2D alignment and classification only (no 3D map)
[8] = target: the molecule itself; assay: AUC; with RBS dsDNA; sedimentation velocity (Rep68 1 mg/ml, 2.8 µM RBS dsDNA, buffer A, 45,000 rpm, 20°C) and sedimentation equilibrium (complex purified by gel filtration, OD260 0.25 or 0.75; 4,000, 5,000 and 7,000 rpm, 20°C)
[9] = target: the molecule itself; assay: SEC; Superose 6 10/300 GL, buffer A (25 mM Tris-HCl pH 8.0, 200 mM NaCl, 5% glycerol, 1 mM TCEP); Rep protein 16.6 µM incubated with 2.8 µM ssDNA (polydT25) 30 min on ice; also with 1 mM ATP, ATP/CaCl2 or ATP/MgCl2 added (same complex)
His-Rep68 WT = His-Rep68 WT (Adeno-associated virus 2 (AAV2), UniProt P03132 1-536); assay: size exclusion chromatography; somewhat less efficient than untagged; Anisotropy: 20 mM HEPES pH 7.5, 50 mM NaCl, 5 nM DNA, 20 C, 15 min. SEC: 25 mM Tris-HCl pH 8.0 (4 C), 200 mM NaCl, 5% glycerol, 1 mM TCEP, 16.6 uM protein, 30 min on ice; details: protein: recombinant; tags: N-terminal His6-PreScission site; chain copies: 16
Rep40 [10] = target: T3, Rep40; assay: size exclusion chromatography; 2.8 or 16.6 uM ssDNA, 200 mM NaCl; ssDNA elutes free; Anisotropy: 20 mM HEPES pH 7.5, 50 mM NaCl, 5 nM DNA, 20 C, 15 min. SEC: 25 mM Tris-HCl pH 8.0 (4 C), 200 mM NaCl, 5% glycerol, 1 mM TCEP, 16.6 uM protein, 30 min on ice; details: protein: recombinant
OID (OID-N208) [11] = target: T1, OID (OID-N208); assay: as above; details: protein: recombinant; chain copies: 2
Rep68 [12] = target: T2, Rep68; assay: size exclusion chromatography; sedimentation velocity; SAXS; cryo-EM; no nucleotide; apparent ~2.3 MDa; Anisotropy: 20 mM HEPES pH 7.5, 50 mM NaCl, 5 nM DNA, 20 C, 15 min. SEC: 25 mM Tris-HCl pH 8.0 (4 C), 200 mM NaCl, 5% glycerol, 1 mM TCEP, 16.6 uM protein, 30 min on ice; details: protein: recombinant; tags: untagged (His6-PreScission tag removed); chain copies: 16

B1: RBS dsDNA (JM-2/JM-20) (dsDNA)
DNA 1: GCCTCAGTGAGCGAGCGAGCGCGCAGAG
DNA 2: CTCTGCGCGCTCGCTCGCTCACTGAGGC
binding result (OID (OID-N208) [1]): binds | binding result (Rep68 [2]): binds

B2: poly-dT38 5'-FAM (ssDNA)
DNA: TTTTTTTTTTTTTTTTTTTTTTTTTTTTTTTTTTTTTT
Kd (Rep68 [3]): 23 nM | Kd (Rep40 [4]): ~3500 nM | Kd (OID (OID-N208) [5]): ~130 nM

B3: Rep68 (adeno-associated virus 2), non-tagged (natural protein)
chain: MPGFYEIVIKVPSDLDGHLPGISDSFVNWVAEKEWELPPDSDMDLNLIEQAPLTVAEKLQRDFLTEWRRVSKAPEALFFVQFEKGESYFHMHVLVETTGVKSMVLGRFLSQIREKLIQRIYRGIEPTLPNWFAVTKTRNGAGGGNKVVDECYIPNYLLPKTQPELQWAWTNMEQYLSACLNLTERKRLVAQHLTHVSQTQEQNKENQNPNSDAPVIRSKTSARYMELVGWLVDKGITSEKQWIQEDQASYISFNAASNSRSQIKAALDNAGKIMSLTKTAPDYLVGQQPVEDISSNRIYKILELNGYDPQYAASVFLGWATKKFGKRNTIWLFGPATTGKTNIAEAIAHTVPFYGCVNWTNENFPFNDCVDKMVIWWEEGKMTAKVVESAKAILGGSKVRVDQKCKSSAQIDPTPVIVTSNTNMCAVIDGNSTTFEHQQPLQDRMFKFELTRRLDHDFGKVTKQEVKDFFRWAKDHVVEVEHEFYVKKGGAKKRPAPSDADISEPKRVRESVAQPSTSDAEASINYADRLARGHSL
notes: Rep68 protein of adeno-associated virus 2 (AAV2), GenBank AAC03774; Expressed as His6-PreScission site-Rep68; the His-PP tag was removed with PreScission protease; also called untagged Rep68; non-tagged Rep68; source: E. coli BL21(DE3)pLysS, purified (Ni column, PreScission cleavage, second Ni column, Superdex 200 gel filtration); not shown: His6, N-terminal, cleaved
stoichiometry N [6]: 8 | stoichiometry N [7]: 16 | stoichiometry N [8]: 5

B4: His-Rep68 K404A (natural protein)
chain: MPGFYEIVIKVPSDLDGHLPGISDSFVNWVAEKEWELPPDSDMDLNLIEQAPLTVAEKLQRDFLTEWRRVSKAPEALFFVQFEKGESYFHMHVLVETTGVKSMVLGRFLSQIREKLIQRIYRGIEPTLPNWFAVTKTRNGAGGGNKVVDECYIPNYLLPKTQPELQWAWTNMEQYLSACLNLTERKRLVAQHLTHVSQTQEQNKENQNPNSDAPVIRSKTSARYMELVGWLVDKGITSEKQWIQEDQASYISFNAASNSRSQIKAALDNAGKIMSLTKTAPDYLVGQQPVEDISSNRIYKILELNGYDPQYAASVFLGWATKKFGKRNTIWLFGPATTGKTNIAEAIAHTVPFYGCVNWTNENFPFNDCVDKMVIWWEEGKMTAKVVESAKAILGGSKVRVDQACKSSAQIDPTPVIVTSNTNMCAVIDGNSTTFEHQQPLQDRMFKFELTRRLDHDFGKVTKQEVKDFFRWAKDHVVEVEHEFYVKKGGAKKRPAPSDADISEPKRVRESVAQPSTSDAEASINYADRLARGHSL
notes: Rep68 protein of adeno-associated virus 2 (AAV2), GenBank AAC03774, with K404A; source: E. coli BL21(DE3)pLysS, purified (Ni column, Superdex 200 gel filtration); not shown: His6, N-terminal, kept
binding result [9]: binds

B5: His-Rep68 K406A (natural protein)
chain: MPGFYEIVIKVPSDLDGHLPGISDSFVNWVAEKEWELPPDSDMDLNLIEQAPLTVAEKLQRDFLTEWRRVSKAPEALFFVQFEKGESYFHMHVLVETTGVKSMVLGRFLSQIREKLIQRIYRGIEPTLPNWFAVTKTRNGAGGGNKVVDECYIPNYLLPKTQPELQWAWTNMEQYLSACLNLTERKRLVAQHLTHVSQTQEQNKENQNPNSDAPVIRSKTSARYMELVGWLVDKGITSEKQWIQEDQASYISFNAASNSRSQIKAALDNAGKIMSLTKTAPDYLVGQQPVEDISSNRIYKILELNGYDPQYAASVFLGWATKKFGKRNTIWLFGPATTGKTNIAEAIAHTVPFYGCVNWTNENFPFNDCVDKMVIWWEEGKMTAKVVESAKAILGGSKVRVDQKCASSAQIDPTPVIVTSNTNMCAVIDGNSTTFEHQQPLQDRMFKFELTRRLDHDFGKVTKQEVKDFFRWAKDHVVEVEHEFYVKKGGAKKRPAPSDADISEPKRVRESVAQPSTSDAEASINYADRLARGHSL
notes: Rep68 protein of adeno-associated virus 2 (AAV2), GenBank AAC03774, with K406A; source: E. coli BL21(DE3)pLysS, purified (Ni column, Superdex 200 gel filtration); not shown: His6, N-terminal, kept
binding result [9]: binds

B6: poly-dT25 ssDNA (ssDNA)
DNA: TTTTTTTTTTTTTTTTTTTTTTTTT
binding result (His-Rep68 WT): binds | binding result (Rep40 [10]): no binding | binding result (OID (OID-N208) [11]): no binding | binding result (Rep68 [12]): binds
